The text below walks through data of paper PMC2949612, “The effects of oligomerization on Saccharomyces cerevisiae Mcm4/6/7 function” (BMC Biochemistry, 2010).

The chains are these.
B1: Mcm4^R701A (natural protein, S. cerevisiae, UniProt P30665 1-933, looked up)
chain: MSQQSSSPTKEDNNSSSPVVPNPDSVPPQLSSPALFYSSSSSQGDIYGRNNSQNLSQGEGNIRAAIGSSPLNFPSSSQRQNSDVFQSQGRQGRIRSSASASGRSRYHSDLRSDRALPTSSSSLGRNGQNRVHMRRNDIHTSDLSSPRRIVDFDTRSGVNTLDTSSSSAPPSEASEPLRIIWGTNVSIQECTTNFRNFLMSFKYKFRKILDEREEFINNTTDEELYYIKQLNEMRELGTSNLNLDARNLLAYKQTEDLYHQLLNYPQEVISIMDQTIKDCMVSLIVDNNLDYDLDEIETKFYKVRPYNVGSCKGMRELNPNDIDKLINLKGLVLRSTPVIPDMKVAFFKCNVCDHTMAVEIDRGVIQEPARCERIDCNEPNSMSLIHNRCSFADKQVIKLQETPDFVPDGQTPHSISLCVYDELVDSCRAGDRIEVTGTFRSIPIRANSRQRVLKSLYKTYVDVVHVKKVSDKRLDVDTSTIEQELMQNKVDHNEVEEVRQITDQDLAKIREVAAREDLYSLLARSIAPSIYELEDVKKGILLQLFGGTNKTFTKGGRYRGDINILLCGDPSTSKSQILQYVHKITPRGVYTSGKGSSAVGLTAYITRDVDTKQLVLESGALVLSDGGVCCIDEFDKMSDSTRSVLHEVMEQQTISIAKAGIITTLNARSSILASANPIGSRYNPNLPVTENIDLPPPLLSAFDLVYLVLDKVDEKNDRELAKHLTNLYLEDKPEHISQDDVLPVEFLTMYISYAKEHIHPIITEAAKTELVRAYVGMRKMGDDSRSDEKRITATTRQLESMIRLAEAHAKMKLKNVVELEDVQEAVRLIRSAIKDYATDPKTGKIDMNLVQTGKSVIQRKLQEDLSREIMNVLKDQASDSMSFNELIKQINEHSQDRVESSDIQEALSRLQQEDKVIVLGEGVRRSVRLNNRV
notes: Mcm4, S. cerevisiae; entire MCM4 ORF with the SRF arginine R701 changed to alanine; Purification of the mutant is not described separately; also called 4^RA; Mcm4^RA; source: purified

Holding throughout (settings): both partners purified
One assay has as its target T1, Mcm6 (S. cerevisiae, UniProt P53091 1-1017).
T1 construct: Mcm6, S. cerevisiae; also called minichromosome maintenance protein 6
The assay can be described thus: SEC; 5.2 nmol each subunit mixed, 5 mg/ml, 16°C 30 min; Superose 6 10/300 GL, 20 mM Tris-HCl pH 7.5, 0.1 mM EDTA, 2 mM DTT, 100 mM NaCl, 10% glycerol; no nucleotide.

The target of the assay “Mcm4^R701A” is B1. Described as above.
The next assay has as its target T2, Mcm4 (S. cerevisiae, UniProt P30665 1-933).
T2 construct: Mcm4, S. cerevisiae; the entire MCM4 ORF stands on pET11a-MCM4; also called minichromosome maintenance protein 4; source: purified (ammonium sulphate, SP Sepharose, heparin agarose, ssDNA Sepharose, Mono S)
T2 sequence (looked up): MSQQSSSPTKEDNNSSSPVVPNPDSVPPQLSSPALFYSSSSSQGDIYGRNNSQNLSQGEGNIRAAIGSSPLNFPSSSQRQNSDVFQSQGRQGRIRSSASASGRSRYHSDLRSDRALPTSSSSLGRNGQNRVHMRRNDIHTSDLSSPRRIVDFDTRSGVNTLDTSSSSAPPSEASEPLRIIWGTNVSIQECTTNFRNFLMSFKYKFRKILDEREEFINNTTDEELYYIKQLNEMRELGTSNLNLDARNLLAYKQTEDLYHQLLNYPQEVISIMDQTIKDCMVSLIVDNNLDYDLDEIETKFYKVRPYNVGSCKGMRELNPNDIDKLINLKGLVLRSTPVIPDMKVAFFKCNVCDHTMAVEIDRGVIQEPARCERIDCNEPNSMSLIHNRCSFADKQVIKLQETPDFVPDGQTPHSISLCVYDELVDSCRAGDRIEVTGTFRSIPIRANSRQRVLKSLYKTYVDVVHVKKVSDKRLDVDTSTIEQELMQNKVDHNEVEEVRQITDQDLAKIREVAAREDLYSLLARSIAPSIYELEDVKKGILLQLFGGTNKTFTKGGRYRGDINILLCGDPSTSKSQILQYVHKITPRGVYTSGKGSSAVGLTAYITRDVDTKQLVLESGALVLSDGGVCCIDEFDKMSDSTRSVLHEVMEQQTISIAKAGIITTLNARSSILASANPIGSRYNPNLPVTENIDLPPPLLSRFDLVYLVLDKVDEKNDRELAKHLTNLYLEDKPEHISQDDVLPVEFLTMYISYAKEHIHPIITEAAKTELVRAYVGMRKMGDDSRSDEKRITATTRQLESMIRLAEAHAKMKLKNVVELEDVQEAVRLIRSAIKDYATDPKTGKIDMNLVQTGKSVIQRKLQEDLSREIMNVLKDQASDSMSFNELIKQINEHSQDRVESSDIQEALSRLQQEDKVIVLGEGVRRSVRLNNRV
The experiment in a line: cross-linking; glutaraldehyde, 9 ug Mcm4/6/7 in 20 mM HEPES NaOH pH 8.4, 10 mM magnesium acetate, no nucleotide; 16°C 30 min then 2 min 37°C; 3.5% SDS-phosphate gel.

T1 sequence (P53091 whole entry): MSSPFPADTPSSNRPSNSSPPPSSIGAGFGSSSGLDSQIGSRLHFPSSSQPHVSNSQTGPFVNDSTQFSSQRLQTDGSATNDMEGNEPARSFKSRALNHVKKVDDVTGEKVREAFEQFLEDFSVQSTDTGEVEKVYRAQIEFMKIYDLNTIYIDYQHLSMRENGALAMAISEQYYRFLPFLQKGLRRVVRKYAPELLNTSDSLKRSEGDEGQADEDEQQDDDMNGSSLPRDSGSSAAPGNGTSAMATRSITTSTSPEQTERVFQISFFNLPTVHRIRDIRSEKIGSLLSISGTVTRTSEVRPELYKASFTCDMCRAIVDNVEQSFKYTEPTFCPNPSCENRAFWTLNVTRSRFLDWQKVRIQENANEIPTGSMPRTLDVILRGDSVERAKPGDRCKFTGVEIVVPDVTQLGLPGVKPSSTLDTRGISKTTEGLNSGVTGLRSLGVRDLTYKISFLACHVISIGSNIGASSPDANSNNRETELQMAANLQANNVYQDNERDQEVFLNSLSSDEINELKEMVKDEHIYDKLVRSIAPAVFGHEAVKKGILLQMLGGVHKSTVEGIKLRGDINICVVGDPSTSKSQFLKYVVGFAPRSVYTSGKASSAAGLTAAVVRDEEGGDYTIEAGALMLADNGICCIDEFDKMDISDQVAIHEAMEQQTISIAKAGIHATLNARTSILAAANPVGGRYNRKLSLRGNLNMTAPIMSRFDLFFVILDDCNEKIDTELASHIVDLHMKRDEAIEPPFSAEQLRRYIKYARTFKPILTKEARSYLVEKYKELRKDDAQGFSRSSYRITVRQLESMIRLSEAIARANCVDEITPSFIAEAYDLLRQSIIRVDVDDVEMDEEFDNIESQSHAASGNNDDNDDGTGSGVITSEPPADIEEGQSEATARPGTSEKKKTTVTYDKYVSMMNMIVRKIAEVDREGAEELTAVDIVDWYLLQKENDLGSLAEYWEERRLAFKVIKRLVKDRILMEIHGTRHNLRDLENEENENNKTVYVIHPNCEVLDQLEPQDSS

Turning to B1, the binding result with Mcm6 is reported as “binds”.

B2: Mcm7 (natural protein, S. cerevisiae, UniProt P38132 1-845, looked up)
chain: MSAALPSIQLPVDYNNLFNEITDFLVTFKQDTLSSDATRNENEDENLDAENIEQHLLEKGPKYMAMLQKVANRELNSVIIDLDDILQYQNEKFLQGTQADDLVSAIQQNANHFTELFCRAIDNNMPLPTKEIDYKDDVLDVILNQRRLRNERMLSDRTNEIRSENLMDTTMDPPSSMNDALREVVEDETELFPPNLTRRYFLYFKPLSQNCARRYRKKAISSKPLSVRQIKGDFLGQLITVRGIITRVSDVKPAVEVIAYTCDQCGYEVFQEVNSRTFTPLSECTSEECSQNQTKGQLFMSTRASKFSAFQECKIQELSQQVPVGHIPRSLNIHVNGTLVRSLSPGDIVDVTGIFLPAPYTGFKALKAGLLTETYLEAQFVRQHKKKFASFSLTSDVEERVMELITSGDVYNRLAKSIAPEIYGNLDVKKALLLLLVGGVDKRVGDGMKIRGDINVCLMGDPGVAKSQLLKAICKISPRGVYTTGKGSSGVGLTAAVMKDPVTDEMILEGGALVLADNGICCIDEFDKMDESDRTAIHEVMEQQTISISKAGINTTLNARTSILAAANPLYGRYNPRLSPLDNINLPAALLSRFDILFLMLDIPSRDDDEKLAEHVTYVHMHNKQPDLDFTPVEPSKMREYIAYAKTKRPVMSEAVNDYVVQAYIRLRQDSKREMDSKFSFGQATPRTLLGIIRLSQALAKLRLADMVDIDDVEEALRLVRVSKESLYQETNKSKEDESPTTKIFTIIKKMLQETGKNTLSYENIVKTVRLRGFTMLQLSNCIQEYSYLNVWHLINEGNTLKFVDDGTMDTDQEDSLVSTPKLAPQTTASANVSAQDSDIDLQDA
notes: Mcm7, S. cerevisiae; also called minichromosome maintenance protein 7
Consider B2, for which the binding result with Mcm4^R701A and with Mcm4 was “binds” throughout.
